Source: US9176064B2, “Bisubstrate fluorescent probes for protein kinase CK2” (University of Tartu, priority 2012, dated 2015)
Where a SMILES comes first, the peptide text is derived from it. [ ]: non-standard residue; d: D form. The star is where a group is joined. X1 = O=C(CCCCCCCn1cnc2c(Br)c(Br)c(Br)c(Br)c21)*

Assays:
Experiment in all cases: Kinase panel residual activity
Assay type in all cases: biochemical
Conditions in all cases: compound at 1 micromolar
[1] = target: GSK3b (Homo sapiens, UniProt P49841)
GSK3b, sequence (P49841 whole entry, species assumed): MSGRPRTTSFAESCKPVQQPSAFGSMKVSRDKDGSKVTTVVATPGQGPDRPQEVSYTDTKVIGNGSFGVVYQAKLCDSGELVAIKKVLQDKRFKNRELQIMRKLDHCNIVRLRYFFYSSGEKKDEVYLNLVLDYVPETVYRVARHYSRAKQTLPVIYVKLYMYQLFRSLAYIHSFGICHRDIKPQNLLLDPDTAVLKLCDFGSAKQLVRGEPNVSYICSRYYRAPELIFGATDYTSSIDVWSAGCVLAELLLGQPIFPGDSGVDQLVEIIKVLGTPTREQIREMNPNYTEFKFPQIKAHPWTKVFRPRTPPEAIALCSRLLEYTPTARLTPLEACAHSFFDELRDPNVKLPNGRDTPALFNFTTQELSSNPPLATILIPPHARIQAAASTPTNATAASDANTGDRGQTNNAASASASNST

[2] = target: CK1γ2 (Homo sapiens, UniProt P78368)
CK1γ2, sequence (P78368 whole entry): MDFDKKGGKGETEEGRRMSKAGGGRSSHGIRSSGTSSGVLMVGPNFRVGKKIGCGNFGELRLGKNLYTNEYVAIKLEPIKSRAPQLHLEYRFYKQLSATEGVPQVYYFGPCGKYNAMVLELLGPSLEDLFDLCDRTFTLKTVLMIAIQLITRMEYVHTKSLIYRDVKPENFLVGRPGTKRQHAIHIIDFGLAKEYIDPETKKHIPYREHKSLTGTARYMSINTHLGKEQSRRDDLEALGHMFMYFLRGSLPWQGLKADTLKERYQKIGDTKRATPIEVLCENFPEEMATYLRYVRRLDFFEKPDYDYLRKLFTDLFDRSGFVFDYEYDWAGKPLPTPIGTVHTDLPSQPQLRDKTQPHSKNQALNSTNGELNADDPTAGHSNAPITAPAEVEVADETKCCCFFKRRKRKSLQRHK

[3] = target: T1, PKD1 (Homo sapiens, UniProt Q15139)
T1 sequence (Q15139 1-912): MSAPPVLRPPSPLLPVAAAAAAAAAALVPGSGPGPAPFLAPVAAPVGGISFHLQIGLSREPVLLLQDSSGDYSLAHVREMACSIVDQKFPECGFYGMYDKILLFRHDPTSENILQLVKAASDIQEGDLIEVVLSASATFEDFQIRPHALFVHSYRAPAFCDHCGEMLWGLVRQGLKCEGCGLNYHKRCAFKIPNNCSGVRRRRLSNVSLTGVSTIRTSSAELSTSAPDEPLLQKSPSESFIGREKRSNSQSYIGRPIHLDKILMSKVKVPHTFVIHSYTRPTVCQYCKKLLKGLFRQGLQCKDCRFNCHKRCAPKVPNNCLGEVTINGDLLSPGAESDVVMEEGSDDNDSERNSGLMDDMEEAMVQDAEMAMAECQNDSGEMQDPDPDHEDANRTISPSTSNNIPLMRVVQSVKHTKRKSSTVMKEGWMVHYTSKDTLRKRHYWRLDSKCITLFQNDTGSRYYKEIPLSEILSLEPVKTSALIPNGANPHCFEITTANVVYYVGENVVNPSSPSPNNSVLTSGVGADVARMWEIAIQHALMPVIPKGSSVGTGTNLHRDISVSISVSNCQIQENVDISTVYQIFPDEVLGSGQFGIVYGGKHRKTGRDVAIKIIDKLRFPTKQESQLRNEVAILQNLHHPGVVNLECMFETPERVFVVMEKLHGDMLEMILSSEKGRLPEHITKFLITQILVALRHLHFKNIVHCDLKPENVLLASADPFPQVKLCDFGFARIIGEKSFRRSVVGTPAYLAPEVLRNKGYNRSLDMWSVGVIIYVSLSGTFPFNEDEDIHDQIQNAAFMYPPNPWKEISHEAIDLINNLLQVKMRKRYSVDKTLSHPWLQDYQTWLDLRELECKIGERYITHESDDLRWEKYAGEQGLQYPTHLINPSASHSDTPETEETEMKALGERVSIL

[4] = target: MPSK1 (Homo sapiens, UniProt O75716)
MPSK1, sequence (O75716 whole entry, species assumed): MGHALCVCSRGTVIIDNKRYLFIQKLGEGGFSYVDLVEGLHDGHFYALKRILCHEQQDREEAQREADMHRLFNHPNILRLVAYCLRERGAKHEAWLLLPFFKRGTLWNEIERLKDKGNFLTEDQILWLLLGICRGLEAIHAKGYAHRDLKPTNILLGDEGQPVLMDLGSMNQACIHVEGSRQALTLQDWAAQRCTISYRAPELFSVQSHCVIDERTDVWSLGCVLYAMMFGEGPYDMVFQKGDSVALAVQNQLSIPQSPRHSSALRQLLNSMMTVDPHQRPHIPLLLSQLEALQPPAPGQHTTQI

[5] = target: T2, EPH-B1 (Homo sapiens, UniProt P54762)
T2 sequence (P54762 18-984): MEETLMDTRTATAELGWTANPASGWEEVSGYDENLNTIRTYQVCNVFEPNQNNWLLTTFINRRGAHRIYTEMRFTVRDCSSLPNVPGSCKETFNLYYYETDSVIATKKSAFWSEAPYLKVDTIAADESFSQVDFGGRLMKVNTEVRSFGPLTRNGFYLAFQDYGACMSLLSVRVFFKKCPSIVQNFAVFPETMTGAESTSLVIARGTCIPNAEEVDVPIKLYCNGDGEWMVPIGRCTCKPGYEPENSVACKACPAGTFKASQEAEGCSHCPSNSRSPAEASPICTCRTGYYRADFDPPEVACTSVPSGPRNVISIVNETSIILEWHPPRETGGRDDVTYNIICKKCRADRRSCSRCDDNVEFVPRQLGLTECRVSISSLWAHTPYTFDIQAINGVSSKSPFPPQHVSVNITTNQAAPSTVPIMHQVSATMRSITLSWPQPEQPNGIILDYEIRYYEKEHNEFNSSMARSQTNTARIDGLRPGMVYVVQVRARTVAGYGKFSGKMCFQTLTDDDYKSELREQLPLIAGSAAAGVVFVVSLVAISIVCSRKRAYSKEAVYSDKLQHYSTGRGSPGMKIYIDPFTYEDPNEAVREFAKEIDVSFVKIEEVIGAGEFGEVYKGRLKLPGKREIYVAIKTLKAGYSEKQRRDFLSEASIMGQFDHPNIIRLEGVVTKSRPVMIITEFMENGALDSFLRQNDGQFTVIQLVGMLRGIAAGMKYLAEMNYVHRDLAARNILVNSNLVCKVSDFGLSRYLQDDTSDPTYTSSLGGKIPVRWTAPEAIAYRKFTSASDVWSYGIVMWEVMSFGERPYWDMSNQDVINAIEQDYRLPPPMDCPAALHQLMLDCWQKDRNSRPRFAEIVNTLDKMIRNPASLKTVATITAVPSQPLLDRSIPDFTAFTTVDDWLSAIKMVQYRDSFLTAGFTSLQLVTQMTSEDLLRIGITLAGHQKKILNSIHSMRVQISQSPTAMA

NCCCC[C@H](NC(=O)[C@H](CC(=O)O)NC(=O)[C@H](CC(=O)O)NC(=O)[C@H](CC(=O)O)NC(=O)[C@H](CC(=O)O)NC(=O)[C@H](CC(=O)O)NC(=O)[C@@H](CC(=O)O)NC(=O)CCCCCCCn1cnc2c(Br)c(Br)c(Br)c(Br)c21)C(=O)O [TBBI-OcA-(D-Asp)-(L-Asp)5-(L-Lys)-OH] (X1-[dD]DDDDDK-OH)
remaining activity at 1 µM [1]: 46%
remaining activity at 1 µM [2]: 71%
remaining activity at 1 µM [3]: 72%
remaining activity at 1 µM [4]: 96%
remaining activity at 1 µM [5]: 102%
